The labels stand for the following.
B1: COMBO_Rd4_0.6nM_C17 (antibody, V domains shown)
VH: EVQLLESGGGLVQPGGSLRLSCAASGFTFSSYPMSWVRQAPGKGLEWVSAIGGSGGSLPYADSVKGRFTISRDNSKNTLYLQMNSLRAEDTAVYYCARYWPMDIWGQGTLVTVSS
VL: EIVLTQSPGTLSLSPGERATLSCRASQGISSTYLAWYQQKPGQAPRLLMYDASIRATGIPDRFSGSGSGTDFTLTISRLEPEDFAVYYCQQYAYWPLTFGQGTKVEIK
notes: IgG
B2: COMBO_Rd4_6nM_C12 (antibody, V domains shown)
VH: EVQLLESGGGLVQPGGSLRLSCAASGFTFSSYPMSWVRQAPGKGLEWVSAALGSGGSTYYADSVKGRFTISRDNSKNTLYLQMNSLRAEDTAVYYCARYWPMDSWGQGTLVTVS
VL: B1 VL with G28S, I29V, S31A, T32S, A93M, Y94S
notes: IgG
B3: COMBO_Rd4_0.6nM_C20 (antibody, V domains shown)
VH: B1 VH with I104S
VL: B1 VL with G28S, I29V, S31Y, T32L, A93M, Y94E
notes: IgG
B4: COMBO_Rd4_6nM_C21 (antibody, V domains shown)
VH: B1 VH with I104S
VL: B1 VL with G28S, I29V, S31A, T32A, A93M, Y94C
notes: IgG
B5: COMBO_Rd4_6nM_C02 (antibody, V domains shown)
VH: B1 VH with P33A, S35N, G52S, G53D, S57F, L58V, P59Y, I104S
VL: B1 VL with G28S, I29V, T32S, A93E, Y94F
notes: IgG
B6: COMBO_Rd4_0.6nM_C23 (antibody, V domains shown)
VH: B1 VH with I51L, G52F, L58T, P59Y, I104S
VL: B1 VL with A25P, S26R, G28S, I29V, T32S, A93Q, Y94D
notes: IgG
B7: COMBO_Rd4_6nM_C07 (antibody, V domains shown)
VH: B1 VH with D103A, I104D
VL: B1 VL with G28P, T32S, A93Q, Y94G
notes: IgG
B8: COMBO_Rd4_6nM_C25 (antibody, V domains shown)
VH: B1 VH with L58T, P59Y, I104P
VL: B1 VL with G28S, I29V, T32P, A93Q, Y94S
notes: IgG
B9: P5C1_VHVL (antibody, V domains shown)
VH: B1 VH with L58T, P59Y, I104S
VL: B1 VL with G28S, I29V, M49I, I54S, T57P, A93S, Y94T, W95S
notes: IgG; also called PC1
B10: COMBO_Rd4_0.6nM_C19 (antibody, V domains shown)
VH: B1 VH with I104S
VL: B1 VL with G28S, I29V, S31A, T32V, A93R, Y94A
notes: IgG
B11: COMBO_Rd4_6nM_C08 (antibody, V domains shown)
VH: B1 VH with G56T, S57W, L58T, P59Y, I104S
VL: B1 VL with G28S, I29V, T32S, A93Q, Y94K
notes: IgG
B12: COMBO_Rd4_6nM_C10 (antibody, V domains shown)
VH: B1 VH with L58I, P59H, I104S
VL: B1 VL with G28S, I29V, T32S, L34W, A35G, A93Q, Y94C
notes: IgG
B13: COMBO_Rd4_6nM_C09 (antibody, V domains shown)
VH: B1 VH with G52F, G53A, L58T, P59Y, I104S
VL: B1 VL with G28S, I29V, S31A, T32Q, A93Q, Y94A
notes: IgG
B14: COMBO_Rd4_6nM_C22 (antibody, V domains shown)
VH: B1 VH with P33A, S35N, I51C, G52L, G53D, L58T, P59Y, I104S
VL: B1 VL with G28S, I29V, T32S, A93Q, Y94G
notes: IgG
B15: P5A2_VHVL (antibody, V domains shown)
VH: B1 VH with P33A, S35N, G52S, G53D, L58T, P59Y
VL: B1 VL with G28S, I29V, T32S, A93G, Y94S
notes: IgG
B16: COMBO_Rd4_0.6nM_C30 (antibody, V domains shown)
VH: B1 VH with L58T, P59Y, I104S
VL: B1 VL with G28S, I29V, S31Y, T32M, M49I, A93K, Y94S
notes: IgG
B17: COMBO_Rd4_6nM_C11 (antibody, V domains shown)
VH: B1 VH with P59G, I104S
VL: B1 VL with G28S, I29V, S31P, T32L, A93K, Y94A
notes: IgG

Numbering of substitutions follows the chain as printed.

T1 sequence (A0A2K5UD97 entry or part of it): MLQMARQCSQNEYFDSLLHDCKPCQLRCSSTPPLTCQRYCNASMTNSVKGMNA

For the first assay, the target named is Human BCMA (human) (UniProt Q02223). Nature of the assay: SPR, IgG on chip, huBCMA analyte.
The term Kd denotes the free concentration of one partner at which half of the binding sites on the other are occupied at equilibrium, for simple one-to-one binding. One may read the koff as the first-order rate constant of dissociation. As a reminder, the kon is a measure of how fast the partners come together. Take B1: the Kd stood at 0.092 nM, the koff is 0.000801 s⁻¹ and the kon is 8.68e+06 M⁻¹ s⁻¹.
In the case of B2, the Kd was 0.02 nM, the koff stood at 0.00027 s⁻¹ and the kon amounted to 1.38e+07 M⁻¹ s⁻¹.
With B3, the Kd was found to be 0.019 nM, the koff is 0.000146 s⁻¹ and the kon was determined as 7.65e+06 M⁻¹ s⁻¹.
Molecule B4 returned a Kd of 0.006 nM, a koff of 7.34e-05 s⁻¹ and a kon of 1.17e+07 M⁻¹ s⁻¹.
For the molecule B5, the Kd amounted to 0.422 nM, the koff is 0.000443 s⁻¹ and the kon turned out to be 1.05e+06 M⁻¹ s⁻¹.
Turning to B6, the Kd came to 0.028 nM, the koff was 0.00021 s⁻¹ and the kon was found to be 7.39e+06 M⁻¹ s⁻¹.
In the same order, the values of B7 are 0.035 nM, 0.000371 s⁻¹ and 1.05e+07 M⁻¹ s⁻¹.
For B8 the same measures were 0.014 nM, 0.000113 s⁻¹ and 7.98e+06 M⁻¹ s⁻¹.
B9 registered a Kd of 5.99 nM, a koff of 0.0692 s⁻¹ and a kon of 1.16e+07 M⁻¹ s⁻¹.
For B10 the same measures were 0.02 nM, 0.000155 s⁻¹ and 7.86e+06 M⁻¹ s⁻¹.
Regarding B11, the Kd is 0.019 nM, the koff was determined as 0.000169 s⁻¹ and the kon is 8.99e+06 M⁻¹ s⁻¹.
The molecule B12 showed a Kd of 0.018 nM, a koff of 9.72e-05 s⁻¹ and a kon of 5.47e+06 M⁻¹ s⁻¹.
With B13, the Kd amounted to 0.016 nM, the koff was 0.000143 s⁻¹ and the kon was found to be 8.85e+06 M⁻¹ s⁻¹.
B14 yielded a Kd of 0.256 nM, a koff of 0.000775 s⁻¹ and a kon of 3.03e+06 M⁻¹ s⁻¹.
In the same order, the values of B15 are 5.57 nM, 0.0387 s⁻¹ and 6.96e+06 M⁻¹ s⁻¹.
For B16 the same measures were 0.065 nM, 0.000282 s⁻¹ and 4.35e+06 M⁻¹ s⁻¹.
For B17 the same measures were 0.018 nM, 0.000124 s⁻¹ and 6.74e+06 M⁻¹ s⁻¹.

A further assay addresses T1, cynomolgus monkey BCMA (cynomolgus monkey, UniProt A0A2K5UD97 1-53).
T1 construct: Soluble analyte in SPR; construct not described; also called cyBCMA; Cyno BCMA
Description: SPR, IgG on chip, cyBCMA analyte. (In general: SPR reads the build-up and loss of mass on a sensor chip optically.)
For the molecule B1, the affinity, expressed as Kd, was 0.33 nM; the koff is 0.00101 s⁻¹; the association rate constant (kon) was 3.06e+06 M⁻¹ s⁻¹.
On to B2, for which the Kd is 0.148 nM, the koff was found to be 0.000486 s⁻¹ and the kon amounted to 3.29e+06 M⁻¹ s⁻¹.
B3 displayed a Kd of 0.092 nM, a koff of 0.000284 s⁻¹ and a kon of 3.09e+06 M⁻¹ s⁻¹.
In the same order, the values of B4 are 0.078 nM, 0.000248 s⁻¹ and 3.17e+06 M⁻¹ s⁻¹.
The molecule B5 came in with a Kd of 1.71 nM, a koff of 0.00136 s⁻¹ and a kon of 795000 M⁻¹ s⁻¹.
For B6 the same measures were 0.189 nM, 0.000531 s⁻¹ and 2.81e+06 M⁻¹ s⁻¹.
In the case of B7, the Kd came to 0.237 nM, the koff was found to be 0.000934 s⁻¹ and the kon was determined as 3.94e+06 M⁻¹ s⁻¹.
Molecule B8 came in with a Kd of 0.079 nM, a koff of 0.000226 s⁻¹ and a kon of 2.85e+06 M⁻¹ s⁻¹.
For B9 the same measures were 15.2 nM, 0.0538 s⁻¹ and 3.53e+06 M⁻¹ s⁻¹.
In the same order, the values of B10 are 0.336 nM, 0.000979 s⁻¹ and 2.92e+06 M⁻¹ s⁻¹.
In the same order, the values of B11 are 0.14 nM, 0.000428 s⁻¹ and 3.06e+06 M⁻¹ s⁻¹.
With B12, the Kd turned out to be 0.105 nM, the koff was 0.00016 s⁻¹ and the kon is 1.52e+06 M⁻¹ s⁻¹.
In the same order, the values of B13 are 0.134 nM, 0.000318 s⁻¹ and 2.37e+06 M⁻¹ s⁻¹.
For B14 the same measures were 0.972 nM, 0.00165 s⁻¹ and 1.7e+06 M⁻¹ s⁻¹.
For B15 the same measures were 10.2 nM, 0.0164 s⁻¹ and 1.61e+06 M⁻¹ s⁻¹.
As to B16, the Kd was 0.481 nM, the koff amounted to 0.000808 s⁻¹ and the kon turned out to be 1.68e+06 M⁻¹ s⁻¹.
For B17 the same measures were 0.156 nM, 0.000412 s⁻¹ and 2.64e+06 M⁻¹ s⁻¹.

These data come from US20190241669A1 (published 2019).
